{
  "source": "patent US20190309025A1",
  "key": {"[1]": {"target": "MR766wt VLPs (Zika virus MR766 prM and E virus-like particles expressed by plasmid pEZMRprME1-8) (Zika virus strain MR766) (UniProt Q32ZE1)", "experiment": "antibody end-point titration on VLPs (COS-1 supernatant)"}, "[2]": {"target": "BzHuwt VLPs (Zika virus BPH2015 prM and E VLPs expressed by plasmid pEBZHu2-3, pr1-Ala deletion clone) (Zika virus strain BPH2015)", "experiment": "antibody end-point titration on VLPs (COS-1 supernatant)"}, "[3]": {"target": "BzHuKD VLPs (Zika virus BPH2015 VLPs with E106/107 GL to KD, expressed by plasmid pEBZHu2-3 KD) (Zika virus strain BPH2015)", "experiment": "ratio of antibody end-point titers on wt and KD VLPs"}, "[4]": {"target": "MR766KD VLPs (Zika virus MR766 VLPs with E106/107 GL to KD, expressed by plasmid pEZMRprME KD) (Zika virus strain MR766) (UniProt Q32ZE1)", "experiment": "ratio of antibody end-point titers on wt and KD VLPs"}},
  "data": [
    {"substance": "flavivirus group-cross reactive murine monoclonal antibody 4G2", "values": [
      {"measurement": "Antibody end-point titers", "setting": "[1]", "value": "> 2.19e+06"},
      {"measurement": "Antibody end-point titers", "setting": "[2]", "value": 729000},
      {"measurement": "Fold changes (BzHuwt VLPs against BzHuKD VLPs)", "setting": "[3]", "value": "> 729", "unit": "fold"},
      {"measurement": "Fold changes (MR766wt VLPs against MR766KD VLPs)", "setting": "[4]", "value": "> 2190", "unit": "fold"}
    ]}
  ]
}
